Measured values published in the supplement of paper PMC10065799, “High-throughput profiling of sequence recognition by tyrosine kinases and SH2 domains using bacterial peptide display” (eLife, 2023).

Experiments:
[1] = target: SHP2-C SH2; experiment: SH2 binding enrichment of the phosphorylated peptide, bacterial display (enrichment ratio); higher = better substrate or ligand; peptides without Tyr show the background
[2] = target: Grb2 SH2 (UniProt P62993); experiment: as above
[3] = target: c-Src SH2; experiment: as above
[4] = target: Jak2 (UniProt O60674); experiment: phosphorylation enrichment, bacterial display (enrichment ratio); higher = better substrate or ligand; peptides without Tyr show the background
[5] = target: Hck (UniProt P08631); experiment: as above
[6] = tested on: c-Src; experiment: as above
[7] = target: EPHB2 (UniProt P29323); experiment: as above
[8] = target: FGFR1 (UniProt P11362); experiment: as above
[9] = target: Fyn (UniProt P06241); experiment: as above
[10] = target: FGFR3 (UniProt P22607); experiment: as above
[11] = target: EPHB1 (UniProt P54762); experiment: as above
[12] = target: MERTK (UniProt Q12866); experiment: as above
[13] = tested on: Fer (mouse); experiment: as above
[14] = tested on: AncSZ; experiment: as above
[15] = target: Fes (UniProt P07332); experiment: as above
[16] = tested on: c-Abl (mouse); experiment: as above
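For SH2 binding enrichment of the phosphorylated peptide, bacterial display in this document: peptide library displayed on the E. coli surface as eCPX fusions, selected cells deep-sequenced, score is each peptide's frequency after selection divided by its frequency in the input.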
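For phosphorylation enrichment, bacterial display in this document: 11-residue human phosphosite peptides and single-mutation variants displayed on the E. coli surface, counted by deep sequencing, each peptide's frequency after selection divided by its frequency in the unselected input library; frequency after pTyr selection over input frequency; kinase dosed for 20-30% of maximal phosphorylation in three min.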

Sequence of MERTK (Q12866 whole entry, looked up): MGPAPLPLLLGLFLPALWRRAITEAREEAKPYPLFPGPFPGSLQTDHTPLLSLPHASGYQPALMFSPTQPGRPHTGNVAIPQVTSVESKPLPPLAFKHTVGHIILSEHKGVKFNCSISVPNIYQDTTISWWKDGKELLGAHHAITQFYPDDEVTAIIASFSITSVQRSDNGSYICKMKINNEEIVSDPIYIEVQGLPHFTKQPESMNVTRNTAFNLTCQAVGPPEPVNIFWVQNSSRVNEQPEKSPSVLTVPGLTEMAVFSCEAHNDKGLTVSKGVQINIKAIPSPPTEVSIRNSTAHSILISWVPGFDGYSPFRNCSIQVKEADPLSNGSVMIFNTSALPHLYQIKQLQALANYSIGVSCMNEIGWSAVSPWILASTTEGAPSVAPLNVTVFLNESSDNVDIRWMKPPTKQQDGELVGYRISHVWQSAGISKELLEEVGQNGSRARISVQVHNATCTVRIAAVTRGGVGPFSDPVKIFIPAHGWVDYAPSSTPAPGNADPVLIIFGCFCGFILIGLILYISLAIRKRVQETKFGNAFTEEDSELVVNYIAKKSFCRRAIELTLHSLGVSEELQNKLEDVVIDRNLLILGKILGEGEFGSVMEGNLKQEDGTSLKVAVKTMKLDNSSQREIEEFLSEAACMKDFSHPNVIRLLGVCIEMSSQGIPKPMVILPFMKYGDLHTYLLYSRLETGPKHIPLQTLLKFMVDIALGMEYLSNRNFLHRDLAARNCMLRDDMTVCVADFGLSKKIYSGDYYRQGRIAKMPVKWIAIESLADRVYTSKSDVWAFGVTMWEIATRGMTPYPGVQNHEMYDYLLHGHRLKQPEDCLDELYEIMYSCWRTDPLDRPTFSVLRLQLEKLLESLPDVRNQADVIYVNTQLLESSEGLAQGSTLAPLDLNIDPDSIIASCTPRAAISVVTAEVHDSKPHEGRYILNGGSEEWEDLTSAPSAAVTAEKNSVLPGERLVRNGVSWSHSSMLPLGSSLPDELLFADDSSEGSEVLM
Sequence of EPHB1 (P54762 whole entry, looked up): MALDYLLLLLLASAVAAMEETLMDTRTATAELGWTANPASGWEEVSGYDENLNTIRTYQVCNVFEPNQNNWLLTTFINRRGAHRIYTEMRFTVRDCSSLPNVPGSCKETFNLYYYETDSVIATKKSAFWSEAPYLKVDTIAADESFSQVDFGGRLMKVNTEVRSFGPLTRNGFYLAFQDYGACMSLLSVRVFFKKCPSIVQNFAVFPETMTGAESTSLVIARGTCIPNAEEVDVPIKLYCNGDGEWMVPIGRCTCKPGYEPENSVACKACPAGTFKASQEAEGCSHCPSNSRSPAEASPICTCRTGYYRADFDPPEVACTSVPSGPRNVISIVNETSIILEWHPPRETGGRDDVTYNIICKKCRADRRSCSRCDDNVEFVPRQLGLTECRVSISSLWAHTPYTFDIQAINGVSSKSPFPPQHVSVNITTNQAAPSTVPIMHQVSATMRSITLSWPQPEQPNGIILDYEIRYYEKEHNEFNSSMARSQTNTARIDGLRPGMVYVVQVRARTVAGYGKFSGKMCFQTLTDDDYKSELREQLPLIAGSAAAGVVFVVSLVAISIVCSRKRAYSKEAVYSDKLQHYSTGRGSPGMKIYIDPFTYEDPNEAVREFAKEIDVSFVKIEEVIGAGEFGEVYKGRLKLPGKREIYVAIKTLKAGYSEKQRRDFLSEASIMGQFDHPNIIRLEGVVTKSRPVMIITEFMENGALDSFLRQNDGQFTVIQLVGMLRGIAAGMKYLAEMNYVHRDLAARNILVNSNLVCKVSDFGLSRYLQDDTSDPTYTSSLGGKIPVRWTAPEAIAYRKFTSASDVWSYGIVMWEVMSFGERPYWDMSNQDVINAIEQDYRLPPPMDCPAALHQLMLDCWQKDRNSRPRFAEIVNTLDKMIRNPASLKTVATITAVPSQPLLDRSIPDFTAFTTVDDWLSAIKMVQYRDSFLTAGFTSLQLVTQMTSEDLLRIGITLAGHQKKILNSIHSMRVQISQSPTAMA
Sequence of Hck (P08631 whole entry, looked up): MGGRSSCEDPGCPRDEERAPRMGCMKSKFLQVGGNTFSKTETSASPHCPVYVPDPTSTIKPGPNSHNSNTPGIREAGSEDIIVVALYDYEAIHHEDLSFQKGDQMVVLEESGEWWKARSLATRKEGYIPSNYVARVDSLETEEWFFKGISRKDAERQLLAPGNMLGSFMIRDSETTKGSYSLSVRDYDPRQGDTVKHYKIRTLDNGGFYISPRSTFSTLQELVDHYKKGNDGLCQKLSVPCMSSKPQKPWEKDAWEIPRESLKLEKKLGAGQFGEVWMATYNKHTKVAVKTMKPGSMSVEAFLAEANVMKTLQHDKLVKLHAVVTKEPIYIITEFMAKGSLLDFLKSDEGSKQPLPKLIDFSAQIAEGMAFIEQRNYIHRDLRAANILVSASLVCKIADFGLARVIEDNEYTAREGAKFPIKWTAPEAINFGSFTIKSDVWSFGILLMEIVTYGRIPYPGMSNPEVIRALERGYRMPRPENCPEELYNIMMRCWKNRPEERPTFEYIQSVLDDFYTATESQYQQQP
Sequence of Fes (P07332 whole entry, looked up): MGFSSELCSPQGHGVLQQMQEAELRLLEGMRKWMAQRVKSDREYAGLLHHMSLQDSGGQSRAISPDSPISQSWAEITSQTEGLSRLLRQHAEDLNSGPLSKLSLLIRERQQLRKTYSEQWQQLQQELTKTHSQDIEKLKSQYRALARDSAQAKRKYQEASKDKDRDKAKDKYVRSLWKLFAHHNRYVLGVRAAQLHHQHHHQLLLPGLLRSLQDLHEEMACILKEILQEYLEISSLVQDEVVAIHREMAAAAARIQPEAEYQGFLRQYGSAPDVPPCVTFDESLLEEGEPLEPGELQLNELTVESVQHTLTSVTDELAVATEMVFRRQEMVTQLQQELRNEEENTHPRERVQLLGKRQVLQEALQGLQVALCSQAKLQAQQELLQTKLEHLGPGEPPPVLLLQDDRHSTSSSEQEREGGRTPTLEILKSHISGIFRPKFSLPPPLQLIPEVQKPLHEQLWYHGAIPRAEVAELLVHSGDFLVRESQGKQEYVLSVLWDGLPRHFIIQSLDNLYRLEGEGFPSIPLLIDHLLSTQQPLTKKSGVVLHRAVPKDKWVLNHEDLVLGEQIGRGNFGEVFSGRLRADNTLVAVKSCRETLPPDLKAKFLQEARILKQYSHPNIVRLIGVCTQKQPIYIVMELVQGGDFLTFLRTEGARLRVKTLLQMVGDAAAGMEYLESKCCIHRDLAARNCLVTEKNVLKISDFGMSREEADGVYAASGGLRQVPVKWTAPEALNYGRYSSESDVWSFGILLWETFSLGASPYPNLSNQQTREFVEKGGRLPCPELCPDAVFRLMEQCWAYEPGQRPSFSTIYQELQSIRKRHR
Sequence of EPHB2 (P29323 whole entry, looked up): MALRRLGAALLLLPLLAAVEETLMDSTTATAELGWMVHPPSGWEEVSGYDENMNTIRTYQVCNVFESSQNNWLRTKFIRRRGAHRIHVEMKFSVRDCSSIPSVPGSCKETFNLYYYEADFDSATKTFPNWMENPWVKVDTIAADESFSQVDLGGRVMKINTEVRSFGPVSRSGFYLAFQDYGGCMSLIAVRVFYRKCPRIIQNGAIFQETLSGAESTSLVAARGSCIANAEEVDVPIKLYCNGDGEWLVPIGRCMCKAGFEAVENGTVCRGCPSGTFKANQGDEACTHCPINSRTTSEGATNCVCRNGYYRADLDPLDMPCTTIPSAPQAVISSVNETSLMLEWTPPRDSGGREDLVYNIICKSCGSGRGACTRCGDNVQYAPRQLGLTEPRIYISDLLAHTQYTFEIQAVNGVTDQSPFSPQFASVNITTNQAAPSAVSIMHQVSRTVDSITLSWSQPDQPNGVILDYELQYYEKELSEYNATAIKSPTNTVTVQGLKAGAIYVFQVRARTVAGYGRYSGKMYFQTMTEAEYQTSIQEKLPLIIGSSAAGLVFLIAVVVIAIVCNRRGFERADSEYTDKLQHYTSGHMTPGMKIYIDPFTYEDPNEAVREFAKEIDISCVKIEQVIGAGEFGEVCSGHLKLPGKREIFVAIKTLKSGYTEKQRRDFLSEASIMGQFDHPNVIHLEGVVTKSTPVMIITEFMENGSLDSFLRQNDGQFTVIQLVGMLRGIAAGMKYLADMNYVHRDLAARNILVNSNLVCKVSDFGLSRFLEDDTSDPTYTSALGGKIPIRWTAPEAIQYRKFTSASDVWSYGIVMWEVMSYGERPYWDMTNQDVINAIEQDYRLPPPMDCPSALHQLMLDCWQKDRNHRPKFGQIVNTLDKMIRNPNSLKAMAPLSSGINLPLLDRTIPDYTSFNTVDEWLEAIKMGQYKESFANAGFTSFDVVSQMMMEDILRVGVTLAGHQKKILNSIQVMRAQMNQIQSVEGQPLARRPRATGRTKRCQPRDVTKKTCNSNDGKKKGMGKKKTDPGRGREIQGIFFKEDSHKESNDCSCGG
Sequence of Grb2 SH2 (P62993 whole entry, looked up): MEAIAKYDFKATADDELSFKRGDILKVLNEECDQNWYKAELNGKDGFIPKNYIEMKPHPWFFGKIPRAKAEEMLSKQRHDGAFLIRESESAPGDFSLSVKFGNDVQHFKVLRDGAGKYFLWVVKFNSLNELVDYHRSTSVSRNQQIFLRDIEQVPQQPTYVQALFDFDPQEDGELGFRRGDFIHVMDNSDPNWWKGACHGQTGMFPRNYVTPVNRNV

Sequence | SH2 binding enrichment [1] | SH2 binding enrichment [2] | SH2 binding enrichment [3] | phosphorylation enrichment [4] | phosphorylation enrichment [5] | phosphorylation enrichment [6] | phosphorylation enrichment [7] | phosphorylation enrichment [8] | phosphorylation enrichment [9] | phosphorylation enrichment [10] | phosphorylation enrichment [11] | phosphorylation enrichment [12] | phosphorylation enrichment [13] | phosphorylation enrichment [14] | phosphorylation enrichment [15] | phosphorylation enrichment [16]
HCFAAYFQQGD [GPI_Y351_R347C] | 0.929 | 0.984 | 0.673 | 2.05 | 0.748 | 1.23 | 0.906 | 0.914 | 0.755 | 1.28 | 1.05 | 1.03 | 1.08 | 1.72 | 2.51 | 1.98
PMQMPYDSRWE [PDGFRA_Y582_L580M] | 0.721 | 0.615 | 0.601 | 2.03 | 0.794 | 1.49 | 0.801 | 0.865 | 0.374 | 1.1 | 0.835 | 0.728 | 0.671 | 1.52 | 1.47 | 1.96
IDDLEYLHSQG [STK11_Y166_G163D] | 0.57 | 0.615 | 0.471 | 0.865 | 0.531 | 0.578 | 0.777 | 0.676 | 0.581 | 0.737 | 0.638 | 0.572 | 0.61 | 1.22 | 1.24 | 0.636
WTAHSYRMGST [ARHGEF7_Y785] | 0.651 | 0.838 | 0.538 | 0.432 | 0.432 | 0.374 | 0.407 | 0.496 | 0.479 | 0.47 | 0.46 | 0.37 | 0.482 | 0.642 | 0.659 | 0.437
VRHRRYKHTHE [CTCF_Y343] | 0.714 | 0.665 | 0.364 | 0.643 | 0.631 | 0.788 | 0.622 | 0.743 | 0.613 | 0.603 | 0.55 | 0.684 | 0.584 | 0.759 | 0.654 | 0.816
ERTIEYLEEVV [HADHA_Y239_A244V] | 0.594 | 0.836 | 0.451 | 1.07 | 0.498 | 0.487 | 0.615 | 0.55 | 0.466 | 0.712 | 0.559 | 0.386 | 0.523 | 1.18 | 1.17 | 0.739
HSFNSYTFPRL [PAK5_Y316_YF] | 0.494 | 0.699 | 0.481 | 1.31 | 0.525 | 0.374 | 0.629 | 0.59 | 0.407 | 0.958 | 0.802 | 0.55 | 0.489 | 1.78 | 1.74 | 0.849
YGMSTYITRED [FNDC3B_Y180] | 0.576 | 0.608 | 0.464 | 1.07 | 0.873 | 0.981 | 0.584 | 0.514 | 0.852 | 0.683 | 0.712 | 0.46 | 0.745 | 0.972 | 1.25 | 0.924
TVSSDYLHPQY [CCPG1_Y569_F566S] | 0.88 | 1.21 | 0.762 | 0.536 | 0.407 | 0.355 | 0.531 | 0.528 | 0.365 | 0.54 | 0.43 | 0.315 | 0.442 | 1.28 | 0.681 | 0.521
NKPTVYGVSPN [ABL1_Y226] | 0.523 | 0.899 | 0.501 | 0.478 | 0.603 | 0.659 | 0.373 | 0.376 | 0.55 | 0.446 | 0.399 | 0.395 | 0.443 | 0.547 | 0.623 | 0.67
EASEQYLTKAS [NRCAM_Y739] | 0.696 | 0.901 | 0.417 | 0.793 | 0.43 | 0.458 | 0.425 | 0.571 | 0.496 | 0.556 | 0.424 | 0.485 | 0.463 | 0.711 | 0.802 | 0.798
TVLEPYADPFF [ZC3H18_Y367_YF] | 0.673 | 0.779 | 1.32 | 0.906 | 0.65 | 0.517 | 0.5 | 0.753 | 0.526 | 0.611 | 0.432 | 0.408 | 0.536 | 1.16 | 0.879 | 0.565
SIKGKYVTALY [KCNH2_Y611_D609G] | 0.776 | 0.826 | 0.472 | 0.431 | 0.465 | 0.318 | 0.374 | 0.367 | 0.432 | 0.357 | 0.366 | 0.358 | 0.329 | 0.498 | 0.552 | 0.517
KGEDFYCVTYH [FHL1_Y149_C153Y] | 0.484 | 0.562 | 0.39 | 1.25 | 1.71 | 2.37 | 1.12 | 1.1 | 2.6 | 1.22 | 1.09 | 3.58 | 2.15 | 1.84 | 1.5 | 1.04
DRLAVYIDRVR [LMNA_Y45] | 0.861 | 1.07 | 0.682 | 0.892 | 0.434 | 0.359 | 0.554 | 0.418 | 0.476 | 0.745 | 0.542 | 0.41 | 0.488 | 1.24 | 1.11 | 0.61
EFGEVYKGTLK [EPHA2_Y628_M631T] | 0.393 | 0.808 | 0.473 | 0.425 | 0.398 | 0.376 | 0.409 | 0.386 | 0.373 | 0.426 | 0.539 | 0.362 | 0.448 | 0.603 | 0.549 | 0.521
LAVPLYKNGVK [CPS1_Y1069] | 0.708 | 1.12 | 0.512 | 0.933 | 0.574 | 0.416 | 1.67 | 0.904 | 0.777 | 0.836 | 1.09 | 1.42 | 1.04 | 1.23 | 0.856 | 0.777
TSYSGYRCHRH [NKAPL_Y94_Y96C] | 0.635 | 0.939 | 0.732 | 0.678 | 0.5 | 0.433 | 0.477 | 0.63 | 0.352 | 0.584 | 0.386 | 0.509 | 0.31 | 0.694 | 0.695 | 0.528
GLDGRYLLRDS [SH2D1A_Y29_S28R] | 0.7 | 0.817 | 0.515 | 0.51 | 0.395 | 0.436 | 0.448 | 0.531 | 0.372 | 0.488 | 0.423 | 0.41 | 0.637 | 0.651 | 0.734 | 0.441
FFLGKYLQEVL [KLB_Y910_YF] | 1.71 | 1.99 | 1.29 | 0.911 | 0.42 | 0.469 | 0.474 | 0.436 | 0.342 | 0.498 | 0.486 | 0.391 | 0.441 | 0.963 | 1.19 | 0.665
ERNAHYRTPKI [PTK2B_Y699_R698H] | 0.611 | 0.707 | 0.521 | 0.559 | 0.332 | 0.387 | 0.561 | 0.524 | 0.367 | 0.473 | 0.583 | 0.37 | 0.424 | 0.586 | 0.495 | 0.615
RTIPDYTSFNT [EPHB2_Y912] | 0.926 | 1.12 | 0.813 | 0.978 | 0.561 | 0.923 | 0.632 | 1.2 | 0.63 | 0.991 | 0.866 | 0.538 | 0.417 | 0.893 | 0.66 | 1.02
TQTPPYVKKHP [LARP1B_Y457] | 0.821 | 1.01 | 0.629 | 0.593 | 0.357 | 0.488 | 0.39 | 0.34 | 0.459 | 0.521 | 0.458 | 0.466 | 0.439 | 0.677 | 0.624 | 0.514
QNKEDYDGLKE [GSTO1_Y139_A140D] | 0.737 | 1.09 | 0.765 | 1.13 | 0.915 | 0.641 | 1.04 | 0.867 | 0.943 | 1.3 | 1.02 | 0.666 | 0.754 | 1.83 | 1.74 | 1.19
RGGWVYVLHPT [TRMT61A_Y67] | 0.787 | 0.99 | 0.573 | 1.2 | 0.909 | 0.895 | 0.856 | 0.853 | 1.25 | 1.03 | 1.07 | 0.493 | 0.766 | 1.8 | 1.66 | 0.702
AKKKMYSCKTK [AGXT_Y231_R233C] | 1.59 | 1.44 | 1.2 | 2.73 | 0.537 | 0.474 | 0.578 | 0.588 | 0.417 | 1.64 | 0.62 | 0.529 | 0.613 | 1.01 | 1.19 | 1.95
CENNRYGMGTS [PDHA1_Y227] | 0.6 | 0.77 | 0.44 | 0.999 | 0.555 | 0.517 | 0.606 | 0.548 | 0.518 | 0.726 | 0.686 | 0.397 | 0.538 | 0.991 | 1.36 | 0.715
LQTYHYHGHSM [PDHA1_Y289_R288H] | 2 | 1.36 | 1.29 | 1.52 | 0.742 | 0.916 | 0.636 | 1.16 | 0.671 | 0.963 | 0.689 | 0.911 | 0.75 | 0.974 | 0.943 | 0.559
HKLSSYEFDFE [BTK_Y40_Y39S_YF] | 0.719 | 0.974 | 3 | 2.13 | 0.565 | 1.09 | 0.75 | 0.889 | 0.777 | 0.844 | 0.902 | 0.865 | 0.664 | 1.83 | 1.51 | 1.43
